This note sets out measurements from publication PMC3480499, “Isolation of Reovirus T3D Mutants Capable of Infecting Human Tumor Cells Independent of Junction Adhesion Molecule-A” (PLoS ONE, 2012).

B1: reovirus type 3 Dearing (T3D) spike protein σ1, wild type (natural protein)
chain: MDPRLREEVVRLIIALTSDNGASLSKGLESRVSALEKTSQIHSDTILRITQGLDDANKRIIALEQSRDDLVASVSDAQLAISRLESSIGALQTVVNGLDSSVTQLGARVGQLETGLAELRVDHDNLVARVDTAERNIGSLTTELSTLTLRVTSIQADFESRISTLERTAVTSAGAPLSIRNNRMTMGLNDGLTLSGNNLAIRLPGNTGLNIQNGGLQFRFNTDQFQIVNNNLTLKTTVFDSINSRIGATEQSYVASAVTPLRLNSSTKVLDMLIDSSTLEINSSGQLTVRSTSPNLRYPIADVSGGIGMSPNYRFRQSMWIGIVSYSGSGLNWRVQVNSDIFIVDDYIHICLPAFDGFSIADGGDLSLNFVTGLLPPLLTGDTEPAFHNDVVTYGAQTVAIGLSSGGAPQYMSKNLWVEQWQDGVLRLRVEGGGSITHSNSKWPAMTVSYPRSFT
modifications: [35S]-methionine labelled
notes: a stop codon was introduced behind the S1 ORF so that the Myc-His tag of the vector is absent; also called wt σ1; wt T3D σ1
B2: reovirus T3D spike protein σ1 with the Q336R substitution (natural protein)
chain: MDPRLREEVVRLIIALTSDNGASLSKGLESRVSALEKTSQIHSDTILRITQGLDDANKRIIALEQSRDDLVASVSDAQLAISRLESSIGALQTVVNGLDSSVTQLGARVGQLETGLAELRVDHDNLVARVDTAERNIGSLTTELSTLTLRVTSIQADFESRISTLERTAVTSAGAPLSIRNNRMTMGLNDGLTLSGNNLAIRLPGNTGLNIQNGGLQFRFNTDQFQIVNNNLTLKTTVFDSINSRIGATEQSYVASAVTPLRLNSSTKVLDMLIDSSTLEINSSGQLTVRSTSPNLRYPIADVSGGIGMSPNYRFRQSMWIGIVSYSGSGLNWRVRVNSDIFIVDDYIHICLPAFDGFSIADGGDLSLNFVTGLLPPLLTGDTEPAFHNDVVTYGAQTVAIGLSSGGAPQYMSKNLWVEQWQDGVLRLRVEGGGSITHSNSKWPAMTVSYPRSFT
modifications: [35S]-methionine labelled
notes: Outer capsid (attachment/spike) protein σ1 of mammalian reovirus type 3 Dearing, S1 ORF without tag, with Q336R made by mutation PCR on pDGC-S1delTag; Q336R arose spontaneously in the jin-1 and jin-2 viruses; Carries only Q336R, not T193M of jin-1 or G187R of jin-2; Parent plasmid as for m1; also called σ1-Q336R; S1Q336R
B3: reovirus T3D spike protein σ1 with the Y313A substitution (natural protein)
chain: MDPRLREEVVRLIIALTSDNGASLSKGLESRVSALEKTSQIHSDTILRITQGLDDANKRIIALEQSRDDLVASVSDAQLAISRLESSIGALQTVVNGLDSSVTQLGARVGQLETGLAELRVDHDNLVARVDTAERNIGSLTTELSTLTLRVTSIQADFESRISTLERTAVTSAGAPLSIRNNRMTMGLNDGLTLSGNNLAIRLPGNTGLNIQNGGLQFRFNTDQFQIVNNNLTLKTTVFDSINSRIGATEQSYVASAVTPLRLNSSTKVLDMLIDSSTLEINSSGQLTVRSTSPNLRYPIADVSGGIGMSPNARFRQSMWIGIVSYSGSGLNWRVQVNSDIFIVDDYIHICLPAFDGFSIADGGDLSLNFVTGLLPPLLTGDTEPAFHNDVVTYGAQTVAIGLSSGGAPQYMSKNLWVEQWQDGVLRLRVEGGGSITHSNSKWPAMTVSYPRSFT
modifications: [35S]-methionine labelled
notes: Outer capsid (attachment/spike) protein σ1 of mammalian reovirus type 3 Dearing, S1 ORF without tag, with Y313A made by mutation PCR on pDGC-S1delTag; Forms only intermediate trimers (shaft trimerized, head monomeric), no mature trimers; Parent plasmid as for m1; also called σ1-Y313A; S1Y313A

The series concerns the molecule itself. Description: in vitro trimerization assay (mild SDS-PAGE at 4°C); [35S]-methionine labelled in vitro transcription-translation products incubated in sample buffer (2% SDS, 2.5% β-mercaptoethanol) 30 min at 37°C (or boiled 5 min to disrupt trimers), run on a 10% SDS-polyacrylamide gel kept at 4°C, autoradiography.
B1: the “stoichiometry N” value was 3. Then B2, with 3. Consider B3, for which the “stoichiometry N” value came to 3.
